Reference: the nanobody polyreactivity screen of Harvey et al. (2022)

Assay: yeast display, Sf9 membrane polyspecificity reagent, FACS + sequencing; frameworks hold sequencing errors
Procedure, shortened: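 Genes from sorted yeast were amplified by colony PCR, read by MiSeq 2 × 250 sequencing and filtered on CDR length. These cells carried a synthetic nanobody library in Saccharomyces cerevisiae BJ5465 and were sorted by FACS into low and high (top ~1%) gates on anti-HA and streptavidin fluorescence. Polyreactivity is labelled according to the gate of origin.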

Sequence | polyreactivity (PSR sort gate)
QVQIVESGGGLVQAGGSLRLSCASSGSTFVSYDMGWYRQAPGKERELVADISWSGVSTYADSVKGRFTISRDNAMNTVYLQMNSLKPEDTAVYYCAKDSDLYQRGGYYWGQGTQVTVSS | low polyreactivity
QVQIVESGGGLVQAGGSLRLSCDASGFTFFKYAMGWYRHAPGKERELVATISIDCITNYADSVKGRFTISRDNAKNTVYLQMNSLKPEDTAVYYCNARSLYQQLGYWGQGTQVTVSS | low polyreactivity
QVQIVESGGGLVQAGGSLRLSCPASGRIFYNNAMGWYRPAPGKERELVAAINWSGGSTYYADSVKGRFTISRDNAKNTVYLQMNSLKPEDTAVYYCNADPHGYYGYGYDYWGQGTQVTVSS | low polyreactivity
QVQIVESGGGLVQAGGSLRLSCPASGSTFSRYAMGWYRQAPGKERELVAAISWSGGRTYYADSVKGRFTISRDYATNTVYLLMNSLKPEDTAVYYCAARKLVVILREEYWVQGTQVTVSS | high polyreactivity
QVQIVESGGGLVQAGGSLRLSSAASGSIFPAYAMGWYSLAPWKERELVASITGSGGTTYYADSVKGRFTISRDNAKNTGYLQMNSLKPVDTADNYCNARYYVYSATVDRYGYWGQGSQVTVSS | high polyreactivity
QVQIVESGGGLVQAGGSLRLTCAASGFIFSRYAMGWYRQAPAKERELVAAITSGGRTNYADSVKGRFTISRDNAKNTVYLQMNRLKPEDTAVYYCSGAFYPFWPRYTSDYWGQGTQVTVSS | high polyreactivity
QVQIVESGGGLVQAGGSLRLTCAASGLISTYYVMGWYRQAPGKERELVAAIRASDASTYYADSVKGRFTISRDNAKNTVYLQMNSLKPEDTAVYYCATDSYYVDDTEYDYWGQGTQVTVSS | low polyreactivity
QVQIVESGGGLVQAGGSLRLTCAASGSIFGYYAMGWYRQAPGKERELVAAITTGGSTSYADSVKGRFTISRDNAKKTVYLQMNSLKPEDTAVYYCNARFKLLFGRADDYWGQGTQVTVSS | low polyreactivity
QVQIVESGGGLVQAGGSLRVSCAASGSIFKIYAMGWYRQAPGKERELVASITGSGGSTYYADSVKGRFTISRDNAKNTVYLQMNSLKPEDTAVYYCAAAVLGSSTSEVDPDRPEYYYWGHGTQVTVSS | low polyreactivity
QVQIVESGGGLVQAGGSLRVSCAASGSTFAVYAMGWYRQAPGKEREMVAAISQSGGSTNYADSVKGRFTISRDNAKNTVYLQMNSLKPEDTAVYYCNVDVSRSWAQPYTYDYWGHGTQVTVSS | low polyreactivity
QVQIVESGGGLVQAGGSVRLSCAASGRTFYYNAMGWYRQAPGKERELVASISSSDSDTYYADSVKGRFTISRDNAKNTVYLQMNSLKPEDTAVYYCAAEYYWDLTFTRYDYWGQGTQVTVSS | low polyreactivity
QVQIVESGGGLVQAGGTLRLSCAASGLTFAYYDMGWYSQAPGKERELVAAITSVGTTNYADSVKGRFSISRDNSKNTVYLKMNSLKPEDTAVYYCNADYFSRIVGDRIYDYCGQGTQVTVSS | low polyreactivity
QVQIVESGGGLVQAGVSLRISCAASGSTFADYTMGWYRQAPGKERELVAAISQSGARTYYADSVKGRFTISRDNAKNTVYLQMNSLKPEDTAVYYCAATKAASGPYFRYYYWGQGTQVTVSS | high polyreactivity
QVQIVESGGGLVQARGSLRLSCAASGRTFYGYALGWYRQAPGKERELVASIRSRTGSTYYADSVKGRFTISRDNAKNTVYLLMNILKPEDTAVYYCARPYYAKGFAFDYWGLGTQVTVSS | high polyreactivity
QVQIVESGGGLVQARGSLRLSFAASGFTFSHYAMGWYRQAPGKERELVAAISASGGRTYFADSVKGRFTISRDNAKNTVYVQMNSLKPEDTAVYYCAAKLYDCGGRYWYVYWGQGTQVTVSS | high polyreactivity
QVQIVESGGGLVQGGGSLRLSCAASGSIFGGNAMGWYRQAPGKERELVATITVRGGSTYNADSVKGRFTISRDNAKNTVYLQMNSLKPEDTAVYYCAARGVYLLPKYDYWGQGTQVTVSS | low polyreactivity
QVQIVESGGGSVQAGGSLRLSCADSGFTFRKNAMGWYRQAPGKERELVAAISVSGGRTYYADSVKVRFTISRDNAKNTFYLQMNSLKPEETAVYYCAARRYVLVHKYDYWGQGTQVTVSS | high polyreactivity
QVQIVESGGVLVQAGGSLRLSCAASGLTLKRYAMGWYRQAPRKERELVASITGSGGSTYADTVKARFTISRDNAKNTVYLHMNSLNPEDTAVYYCAKDTRYEYVGSEYCFWGQGTQVTVSS | low polyreactivity
QVQIVESGRGLFQAGGSLRISCPASGYIFLANAMGLYRQAPGKERELVAAITSGGGGTYYADSVKARFTISGDNAKNPVYLLMNTLKPEDTAVYHCAADHGRDGSSIEYWGHGTQVTVSS | low polyreactivity
QVQIVESGRGLVQAGGSLRLSCAPSGRIFIYNAMGWYIQAPGKERELVAAISWRGGRTYYADSVKGRFTISRDNAKNTVYLQMNRLKPEDTAVYYCNAEPYGYERLYDYWGQGTQVNVSS | high polyreactivity
QVQIVESRGGLVQAGGSLRLSCAASGSNLHYYTMGWYRQAPGNEREFVAGISWSGGRTYYADSVKGRFTISRDNAKNTVYFQMNSRKPEDTAVYYCNRQARRGFHRYHLYGYGYWGQGTQVTVSS | high polyreactivity
QVQIVESVGGLVQAGGSLRLSCAASGSTFWFTDMGWYRQAPGKERELVAVITWTGGSTSYADSVKGRFTISRDNAKNTDYLQMKCLNAEDTADYYCDTPVKFGGVPYRYGYWGQGTEVTVSS | low polyreactivity

Sequence | polyreactivity (PSR sort gate)
QVQIVETGGGLVQAGGSLRLSCAASGSIFSAYVMGWYRQAPGKERELVAAITRTGGRTYYADSVKGRFTISRDNAKNTVYLQMNSLKPEDTAVYYCAKEAITRTFPYRHEYWGQGTQVTVSS | low polyreactivity
QVQIVETGGGLVQAGGSLRLSCEASGSTFRNYAMGWYRQATGKERELDAAISSGGSTNYADSVKGRFTISRDNAKNTVFLQMNSLKPEYTAVYYCAAKAWYYPGSRIYYQYYYWGQGTQVTVSS | high polyreactivity
QVQLAESGGALVQAGCSLRLSCSASGYTSAKNVMGWYIQAPGKERELVAAISRSGGRTYYADSVKGRFTISRDNAKNSVYLQMNSLKPEDTAVYYCAARSATNHADDYYYWGQGTQVTVSS | high polyreactivity
QVQLAESGGGLVQAGGSLRLSCAASGSTFVSYAMGWYRQAPGKERELVAAIDWSGGNTDYADSVKGRFTISRDNAKNTVYLQMNSLKPEDTAVYYCNADSWPRRGYDYWGQGTQVTVSS | low polyreactivity
QVQLAESGGGLVQAGGSLRLSCAASGSTFVWYAMGWYRQAPGKEWELVAVIDWSGGSTSYADSVKGRFTISRDNAKNTVYFQMNSLKPEDTAVYYCAADYGHYYGLYYWGQGTQVTVSS | low polyreactivity
QVQLDESGGGLVQAGGSLRLRCAASGFIFVSYAMGWYRQAPGKERELVAAISRGGGSTYYADSVKGRFTISRDNAKNTVYLQMNSLKPEDTAVYYCAAGRFYIDDYWGQGTQVTVSS | high polyreactivity
QVQLEDSGGGLVQAGGSLLLSCPASGRIRYGMGWYRQAPGKERELVATITRGGSTNYADSVKGRFTISRDNAKNTVFLKMISLKPEDTAVYYCNAGSSWYYWRGYAYDYWGQGTQVSVSS | high polyreactivity
QVQLEDSGGGLVQAGGSLRLICAASGSIFGSYAMGWYRHAPGKERELVAAINSGGSTNYADSVKGRFTISRDNAKNTVYLQMNSLKPEDTAVYYCAARLYSNEYRYDYWGQGTQVTVSS | high polyreactivity
QVQLEDSGGGLVQAGGSLRLICAASGSIFGYYAMGWDRQAPGKERELVAAIDSGGSTYYADSVKGRFTISRDNAKNTVYLQMNSLKPEDTAVYYCAAGVSSFSPYDSWGQGTQVTVSS | low polyreactivity
QVQLEDSGGGLVQAGGSLRLSCAASGFIFLPNAMGWYRQAPGKERELVAAISTSDGSTYYADSVKGRFTISRDNAKNTVYLQMNSLKPEDTAVYYCAASYQFYRKYAYDYWGQGTQVTVSS | low polyreactivity
QVQLEDSGGGLVQAGGSLRLSCAASGFIFRYYAMGWYRKATGKERELVAAIDYSGGSTNYADSVKGRFTISRDNAKNTVYLQMNSLKPEDTAVYYCKAVHETTWQLYDYWGQGTQVTVSS | low polyreactivity
QVQLEDSGGGLVQAGGSLRLSCAASGGIFLTYTMGWYRQAPGKEREFVAAIRSSSGRTYYADSVKGRFTISRDNAKNTVYLQMISLKPEDTSVYYCNAKYYGYRVGKYYPFGYWGQGTQVTVSS | high polyreactivity
QVQLEDSGGGLVQAGGSLRLSCAASGIIFYSYAMGWYRQAPVKERELVATISFSGDNTYYADSVKGRFTISRDNAKNTVYLQMNSLKPEDTAVYYCAAASTYGGYYYSVSFEYWGQGTQVTVSS | low polyreactivity
QVQLEDSGGGLVQAGGSLRLSCAASGLTFYGYTMGWYRQAPGKERELVAAISWSGGNTYYADSVKGRFTISRDNAKNTVYLQMNSLKPEDTAVYYCAAEHWTYDWVDYWGQGTQVTVSS | low polyreactivity
QVQLEDSGGGLVQAGGSLRLSCAASGRTFRSNVMGWYRQAPGKERELVAAISKRGGSTFSADSVKGRFTISRDNAKNTVYLQMNSLKPEDTEVYYCAKDTPVYDYGTVYPDDYWGQGTQVTVSS | high polyreactivity
QVQLEDSGGGLVQAGGSLRLSCAASGSIFILNTMGWYREAPGKERELVAGISYSGSTYYADSVKGRFTISRDNAKNTVYLQMNSLKPEDTAVYYCAADYGAAWYNDGYYYWGQGTQVTVSS | low polyreactivity
QVQLEDSGGGLVQAGGSLRLSCAASGSTFYTYAMGWYRQAPGKERELVAAITFIDGSTYYADSVKGRFTISRDNAKNTVYLQMNSLKPEDTAVYYCAADDAKFRYRDDYWGQGTQVTVSS | low polyreactivity
QVQLEEAGGGLVQAGGSLRLSCAASGRTFFENAMGWYRQAPGKEREFVAAISYNGGSTYYADSVKGRFTISRDNAKNTVYLQMNSMKPDDTAVYYCAADPNYGYDYWGQGTQVTVSS | low polyreactivity
QVQLEESAGGLVQAGGSHRLSCADTGRTFRWYAMGWYRQAPGKERELVAAISRNGGSTSFADSVKGRFTISRDNAKKTVYLQLNSLKPEDTAVYYCAAGSRVQWYGYDYWGQGTQVTVSS | high polyreactivity
QVQLEESAGGLVQAGGSLRLSCAASGFTLYYYSMGWYRKAPGKERELVAAIAVSGTSTYYADSVKGRFTISRDNAKNTVYLQMNSLKPEDTAVYYCNKVFRVYQTFKAWGRDYWGQGTQVTVSS | high polyreactivity
QVQLEESAGGLVQAGGSLRLSCAASGSSFTSYAMGWYRQAPGKERELVAAITSGGSTTYADSVKGRFTISRDNEKNTVYLQMNSLKPEDTAVYYCNAKWYGYLTRDAYRYRYTYDYWGQGTQVTVSS | low polyreactivity
